# Experimental data published in article PMC12416549 (2024).
# Positions count from the first letter of the chain named. In names and notes the source's numbering stands.
# B1: F39R (designed binder)
# chain: SMEEEVEKAAKEYEKKKKEAIEKHLEKLKAKDKEAAERRLKELEEAAKEYAKDEAKTMSEEEAKRRAKKYKEKVLLSELSEEEQKEIKEAEEKLVRTILKYVEEAAK
# B2: K27Y (designed binder)
# chain: B1 chain with K27Y, R39F
# B3: V74C (designed binder)
# chain: B1 chain with R39F, V74C
# B4: E26M (designed binder)
# chain: B1 chain with E26M, R39F
# B5: K93V (designed binder)
# chain: B1 chain with R39F, K93V
# B6: Q84I (designed binder)
# chain: B1 chain with R39F, Q84I
# B7: E104N (designed binder)
# chain: B1 chain with R39F, E104N
# B8: A55S (designed binder)
# chain: B1 chain with R39F, A55S
# B9: R96W (designed binder)
# chain: B1 chain with R39F, R96W
# B10: E86C (designed binder)
# chain: B1 chain with R39F, E86C
# B11: E72A (designed binder)
# chain: B1 chain with R39F, E72A
# B12: V6R (designed binder)
# chain: B1 chain with V6R, R39F
# B13: K69R (designed binder)
# chain: B1 chain with R39F, K69R
# B14: E86H (designed binder)
# chain: B1 chain with R39F, E86H
# B15: F39P (designed binder)
# chain: B1 chain with R39P
# B16: Y13R (designed binder)
# chain: B1 chain with Y13R, R39F
# B17: A46H (designed binder)
# chain: B1 chain with R39F, A46H
# B18: E12L (designed binder)
# chain: B1 chain with E12L, R39F
# B19: L40V (designed binder)
# chain: B1 chain with R39F, L40V
# B20: L75S (designed binder)
# chain: B1 chain with R39F, L75S
# B21: K11L (designed binder)
# chain: B1 chain with K11L, R39F
# B22: F39Y (designed binder)
# chain: B1 chain with R39Y
# B23: L43E (designed binder)
# chain: B1 chain with R39F, L43E
# B24: E78Y (designed binder)
# chain: B1 chain with R39F, E78Y
# B25: L94C (designed binder)
# chain: B1 chain with R39F, L94C
# B26: L94Y (designed binder)
# chain: B1 chain with R39F, L94Y
# B27: A35I (designed binder)
# chain: B1 chain with A35I, R39F
# B28: L75G (designed binder)
# chain: B1 chain with R39F, L75G
# B29: A47F (designed binder)
# chain: B1 chain with R39F, A47F
# B30: E34T (designed binder)
# chain: B1 chain with E34T, R39F
# B31: Y13K (designed binder)
# chain: B1 chain with Y13K, R39F
# B32: E37Y (designed binder)
# chain: B1 chain with E37Y, R39F
# B33: E37W (designed binder)
# chain: B1 chain with E37W, R39F
# B34: R66N (designed binder)
# chain: B1 chain with R39F, R66N
# B35: K71V (designed binder)
# chain: B1 chain with R39F, K71V
# B36: E26T (designed binder)
# chain: B1 chain with E26T, R39F
# B37: L79Q (designed binder)
# chain: B1 chain with R39F, L79Q
# B38: K17N (designed binder)
# chain: B1 chain with K17N, R39F
# B39: T57H (designed binder)
# chain: B1 chain with R39F, T57H
# B40: K93G (designed binder)
# chain: B1 chain with R39F, K93G
# B41: S77M (designed binder)
# chain: B1 chain with R39F, S77M
# B42: K107R (designed binder)
# chain: B1 chain with R39F, K107R
# B43: A67P (designed binder)
# chain: B1 chain with R39F, A67P
# B44: E12F (designed binder)
# chain: B1 chain with E12F, R39F
# B45: K31D (designed binder)
# chain: B1 chain with K31D, R39F
# B46: K8G (designed binder)
# chain: B1 chain with K8G, R39F
# B47: V6E (designed binder)
# chain: B1 chain with V6E, R39F
# B48: E19G (designed binder)
# chain: B1 chain with E19G, R39F
# B49: L76C (designed binder)
# chain: B1 chain with R39F, L76C
# B50: E83D (designed binder)
# chain: B1 chain with R39F, E83D
# B51: K29Q (designed binder)
# chain: B1 chain with K29Q, R39F
# B52: R96L (designed binder)
# chain: B1 chain with R39F, R96L
# B53: A67I (designed binder)
# chain: B1 chain with R39F, A67I
# B54: E26W (designed binder)
# chain: B1 chain with E26W, R39F
# B55: E44M (designed binder)
# chain: B1 chain with R39F, E44M
# Target: T1, TNFR1 (Homo sapiens, UniProt P19438)
# T1 chain: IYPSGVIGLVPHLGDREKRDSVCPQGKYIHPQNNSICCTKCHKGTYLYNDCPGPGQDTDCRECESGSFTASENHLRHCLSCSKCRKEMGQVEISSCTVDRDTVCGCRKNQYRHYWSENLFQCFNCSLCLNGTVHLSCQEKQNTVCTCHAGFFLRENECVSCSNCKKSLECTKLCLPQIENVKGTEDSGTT
# Test: yeast display SC50
row,Binder,apparent Kd (screen) [nM]
1,B1,5.84
2,B2,0.593
3,B3,4.39
4,B4,0.539
5,B5,1.16
6,B6,2.73
7,B7,0.718
8,B8,1.69
9,B9,2.05
10,B10,0.653
11,B11,2.73
12,B12,0.653
13,B13,1.27
14,B14,1.69
15,B15,4.83
16,B16,12.5
17,B17,1.16
18,B18,0.49
19,B19,0.49
20,B20,0.718
21,B21,0.49
22,B22,1.4
23,B23,16.7
24,B24,0.446
25,B25,2.73
26,B26,0.446
27,B27,0.539
28,B28,0.368

row,Binder,apparent Kd (screen) [nM]
1,B29,0.593
2,B30,0.446
3,B31,7.07
4,B32,0.49
5,B33,0.49
6,B34,16.7
7,B35,0.446
8,B36,0.593
9,B37,2.48
10,B38,2.73
11,B39,0.277
12,B40,0.79
13,B41,1.4
14,B42,1.54
15,B43,0.593
16,B44,0.539
17,B45,0.956
18,B46,0.593
19,B47,11.4
20,B48,0.49
21,B49,3
22,B50,1.16
23,B51,0.593
24,B52,0.718
25,B53,7.07
26,B54,1.05
27,B55,0.956
